B3: NPM1_(120), the N-terminal pentamerization domain (NTD) of NPM1 (domain or fragment, human, UniProt P06748 1-120, looked up)
chain: MEDSMDMDMSPLRPQNYLFGCELKADKDYHFKVDNDENEHQLSLRTVSLGAGAKDELHIVEAEAMNYEGSPIKVTLATLKMSVQPTVSLGGFEITPPVVLRLKCGSGPVHISGQHLVAVE
notes: Nucleophosmin 1, human, NTD with the A1 tract, residues 1 to 120; exact construct and tags are in the supplementary methods; also called NPM120; isolated NTD; source: produced by the authors

Data set [1] deals with NPM1_(ΔIDR), NPM1 variant in which NTD and CTD are linked without the IDR (human) (UniProt P06748). The data set is described as follows: native MS; each NPM1 variant alone; nESI with collision-induced dissociation, collision voltages 25 to 75 V.
Data set [2] deals with the molecule itself. The description is as above.
In data set [3] the target is T1, Full-length (FL) Nucleophosmin 1 (human, UniProt P06748 1-294).
T1 construct: Forms pentamers that assemble into large oligomers without defined stoichiometry; PDB 8AS5 models only the N-terminal core; also called NPM1; FL NPM1; source: produced by the authors
The data set is described as follows: native MS; NPM1_120 or FL NPM1 in the presence of the rpL5_21-37 peptide; collisional activation. Particulars: both partners purified.

Data set [4] concerns the target B3. The description is as above. Particulars: both partners purified.
Data set [5] deals with the molecule itself. The description is as above.

Consider five molecules from PMC9896144, “A “grappling hook” interaction connects self-assembly and chaperone activity of Nucleophosmin 1” (PNAS Nexus, 2023).

“And” between values parts separate entries of the source, which are not always exact repeats. Identical values can stand only once.

As for “NPM1_(ΔIDR), NPM1 variant in which NTD and CTD are linked without the IDR (from UniProt P06748 1-120; P06748 240-294)”, the stoichiometry N in data set [1] is 5 and 10.

B1: NPM1AML, NPM1 variant with an AML mutation at the C-terminus (natural protein, human, UniProt P06748 1-294, looked up)
chain: MEDSMDMDMSPLRPQNYLFGCELKADKDYHFKVDNDENEHQLSLRTVSLGAGAKDELHIVEAEAMNYEGSPIKVTLATLKMSVQPTVSLGGFEITPPVVLRLKCGSGPVHISGQHLVAVEEDAESEDEEEEDVKLLSISGKRSAPGGGSKVPQKKVKLAADEDDDDDDEEDDDEDDDDDDFDDEEAEEKAPVKKSIRDTPAKNAQKSNQNGKDSKPSSTPRSKGQESFKKQEKTPKTPKGPSSVEDIKAKMQASIEKGGSLPKVEAKFINYVKNCFRMTDQEAIQDLCLAVEEVSLRK
notes: Compared directly with FL NPM1, so most likely the whole protein with the changed C-terminus; also called AML variant; source: purified by the authors
Regarding B1, the binding result in data set [2] was “binds”.

B2: rpL5_(21-37), residues 21 to 37 of ribosomal protein L5 (peptide, UniProt P46777 21-37, looked up)
peptide: RRRREGKTDYYARKRLV
notes: ribosomal protein L5 (rpL5), residues 21 to 37, with two basic motifs; printed mass 2.2 kDa; also called rpL5 peptide; rpL5_(12-37)
With B2, the binding result in data set [3] and in data set [4] was “binds” each time. As to B3, the “stoichiometry N” value in data set [5] was at least 25 subunits; in data set [2], 10.

B4: NPM1_(188), the NTD and the acidic regions of the IDR of NPM1 (domain or fragment, human, UniProt P06748 1-188, looked up)
chain: MEDSMDMDMSPLRPQNYLFGCELKADKDYHFKVDNDENEHQLSLRTVSLGAGAKDELHIVEAEAMNYEGSPIKVTLATLKMSVQPTVSLGGFEITPPVVLRLKCGSGPVHISGQHLVAVEEDAESEDEEEEDVKLLSISGKRSAPGGGSKVPQKKVKLAADEDDDDDDEEDDDEDDDDDDFDDEEAEE
notes: Nucleophosmin 1, human, NTD and acidic tracts A1-3, C-terminally truncated at residue 188; exact construct and tags are in the supplementary methods; Mostly pentameric; also called NPM188; source: produced by the authors
With B4, the “stoichiometry N” value in data set [2] is 5 and 10.
